Patent US20110212843, “STRUCTURE BASED AND COMBINATORIALLY SELECTED OLIGONUCLEOSIDE PHOSPHOROTHIOATE AND PHOSPHORODITHIOATE APTAMER TARGETING AP-1 TRANSCRIPTION FACTORS” (BOARD OF REGENTS, THE UNIVERSITY OF TEXAS SYSTEM, published 2011)

Experiments:
NF-kB p50 homodimer [1] = target: T1, NF-kB p50 homodimer (UniProt P19838 P19838:1-433); assay: resynthesised on bead; text labels it SEQ ID NO 7 but printed sequence differs; details: chain copies: 2 stated
Description: (§1) Sequencing may also be obtained directly from the bead. Each individually selected bead was washed thoroughly with 8 M urea (pH 7.2) to remove the protein and was directly used for the “one-bead one-PCR” amplification using the 5′ and 3′ end primers. The PCR product was cloned using the TA Cloning procedure (Invitrogen) and sequenced on an ABI Prism 310 Genetic Analyzer (Applied Biosystems). The four thioaptamers listed in Table 3 were obtained from the library. […] The fluorescence intensity of all of the beads viewed under the fluorescence microscope was qualitatively similar to the intensity of the selected bead containing this sequence within the combinatorial library. […] Thus, the split synthesis has been used to create a “one-bead-one sequence” ODN and that PCR can be used to identify an S-ODN bound to a bead (Yang et al., 2002; Gorenstein et al, US & Foreign Patents pending, 1999 a, b, 2001, 2002).

[2] = target: NF-kB p65 (Rel A) homodimer (UniProt Q04206 Q04206:1-551)
NF-kB p50 homodimer [3] = target: T1, NF-kB p50 homodimer; assay: sub-nM binding affinity; details: chain copies: 2 stated
NF-kB p50 homodimer [4] = target: T1, NF-kB p50 homodimer; assay: bead fluorescence, Alexa Fluor 488-p50; PBS 0.1% Tween 20 wash; details: chain copies: 2 stated
Description: (§2) The dsDNA thioaptamer library beads were screened for the ability to bind the NF-κB p50/p50 dimer labeled with the Alexa Fluor 488 dye (Molecular Probes). After initial binding of protein, the beads were thoroughly washed with PBS with 0.1% Tween 20 to minimize nonspecific binding. Typically, a few positive beads were intensely stained when viewed by fluorescence, while the majority of the beads remained unstained as (data not shown). With the aid of a micropipette coupled to a micromanipulator, the intensely stained beads were retrieved. Only highly positive beads from several thousand were found using this method. As described below, multicolor flow cytometry and cell/bead sorting was used to automate the selection process to select the tightest binding thioaptamer-protein complexes.
Sequencing may also be obtained directly from the bead. Each individually selected bead was washed thoroughly with 8 M urea (pH 7.2) to remove the protein and was directly used for the “one-bead one-PCR” amplification using the 5′ and 3′ end primers. The PCR product was cloned using the TA Cloning procedure (Invitrogen) and sequenced on an ABI Prism 310 Genetic Analyzer (Applied Biosystems). […] The fluorescence intensity of all of the beads viewed under the fluorescence microscope was qualitatively similar to the intensity of the selected bead containing this sequence within the combinatorial library. […]

NF-kB p50 homodimer [5] = target: T1, NF-kB p50 homodimer; assay: bead fluorescence, Alexa Fluor 488-p50; details: chain copies: 2 stated
Description: as §2, §1

AP-1 c-Jun = AP-1 c-Jun (Homo sapiens, UniProt P05412 P05412:1-331); assay: EMSA; specific binding to recombinant human c-Jun dimers; details: chain copies: 2 stated
Chain of AP-1 c-Jun (P05412 whole entry, one chain of several): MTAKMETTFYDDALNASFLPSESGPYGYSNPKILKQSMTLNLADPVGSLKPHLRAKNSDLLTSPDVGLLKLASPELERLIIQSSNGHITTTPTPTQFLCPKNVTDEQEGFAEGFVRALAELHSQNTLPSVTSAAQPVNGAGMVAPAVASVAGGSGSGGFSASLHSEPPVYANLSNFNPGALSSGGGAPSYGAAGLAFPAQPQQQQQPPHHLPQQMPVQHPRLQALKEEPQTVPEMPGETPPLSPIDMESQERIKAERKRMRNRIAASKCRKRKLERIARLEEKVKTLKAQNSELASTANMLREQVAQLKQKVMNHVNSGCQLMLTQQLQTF

T1 sequence (P19838 1-433, one chain of several): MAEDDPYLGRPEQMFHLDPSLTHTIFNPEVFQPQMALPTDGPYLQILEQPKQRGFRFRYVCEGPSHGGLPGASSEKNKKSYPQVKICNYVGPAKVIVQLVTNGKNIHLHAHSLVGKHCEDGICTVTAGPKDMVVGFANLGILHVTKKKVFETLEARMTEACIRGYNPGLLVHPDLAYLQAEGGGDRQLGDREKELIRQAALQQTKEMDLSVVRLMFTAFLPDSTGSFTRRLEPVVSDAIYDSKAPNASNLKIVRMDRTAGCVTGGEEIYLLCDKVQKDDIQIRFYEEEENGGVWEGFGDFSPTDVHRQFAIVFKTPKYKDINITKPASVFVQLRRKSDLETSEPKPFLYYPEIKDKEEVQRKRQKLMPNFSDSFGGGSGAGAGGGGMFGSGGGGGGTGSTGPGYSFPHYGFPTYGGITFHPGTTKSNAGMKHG
Chain of NF-kB p65 (Rel A) homodimer (Q04206 whole entry, one chain of several): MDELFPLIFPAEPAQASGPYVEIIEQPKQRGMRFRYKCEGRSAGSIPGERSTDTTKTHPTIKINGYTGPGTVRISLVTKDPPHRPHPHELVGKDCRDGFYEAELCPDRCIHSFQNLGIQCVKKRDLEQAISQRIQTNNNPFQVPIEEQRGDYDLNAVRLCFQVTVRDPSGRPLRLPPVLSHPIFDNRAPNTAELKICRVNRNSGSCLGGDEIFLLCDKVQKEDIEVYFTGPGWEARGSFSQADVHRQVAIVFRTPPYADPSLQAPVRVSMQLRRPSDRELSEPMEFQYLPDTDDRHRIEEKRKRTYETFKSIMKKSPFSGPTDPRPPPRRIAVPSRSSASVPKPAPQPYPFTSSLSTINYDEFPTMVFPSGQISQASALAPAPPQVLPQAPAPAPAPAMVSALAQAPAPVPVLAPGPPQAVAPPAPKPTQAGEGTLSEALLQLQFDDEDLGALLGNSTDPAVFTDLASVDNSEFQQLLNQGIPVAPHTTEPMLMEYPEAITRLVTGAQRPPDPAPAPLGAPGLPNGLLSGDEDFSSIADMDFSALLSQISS

B1: Resynthesised bead thioaptamer (dsDNA)
DNA 1: CTGTGAGTCGACTGATGACGGT
DNA 2: ACCGTCATCAGTCGACTCACAG
modifications: PS 3' of lower-case bases, one strand
binding result (NF-kB p50 homodimer [1]): binds

B2: XBY-6 (dsDNA)
DNA 1: CCAGGAGATTCCAC
DNA 2: GTGGAATCTCCTGG
modifications: phosphorodithioate 3' of T9 and T10 of top strand and 3' of each T printed as S2T in bottom strand (4), 6 in total
Kd [2]: 1.4 nM
Kd (NF-kB p50 homodimer [3]): < 1 nM

B3: Split-synthesis thioaptamer SEQ 6 (dsDNA)
DNA 1: TGTGCAGGGACTGATGACGGT
DNA 2: ACCGTCATCAGTCCCTGCACA
modifications: PS 3' of lower-case bases in tGTGcAGGGACTgAtGaCGGt, one strand
binding result (NF-kB p50 homodimer [4]): binds

B4: Split-synthesis thioaptamer SEQ 8 (dsDNA)
DNA 1: ATGCACATCTCAGGATGACGGT
DNA 2: ACCGTCATCCTGAGATGTGCAT
modifications: PS 3' of lower-case bases in AtGcAcAtCtCaGgAtGaCGGt, one strand
binding result (NF-kB p50 homodimer [5]): binds

B5: XBY-S2 (dsDNA)
DNA 1: CCAGTGACTCAGTG
DNA 2: CACTGAGTCACTGG
modifications: phosphorodithioates, 6 in total, 3' of T at S2 positions as printed (3 per strand)
binding result (AP-1 c-Jun): binds

B6: Split-synthesis thioaptamer SEQ 9 (dsDNA)
DNA 1: AGTTGCAGGTCAGGACCCATTT
DNA 2: AAATGGGTCCTGACCTGCAACT
modifications: PS 3' of lower-case bases in AGTTGcAGGtCaGgACCCAtTt, one strand
binding result (NF-kB p50 homodimer [5]): binds

B7: Split-synthesis thioaptamer SEQ 7 (dsDNA)
DNA 1: CTGTGCATCGAAGTTTGCATTT
DNA 2: AAATGCAAACTTCGATGCACAG
modifications: PS 3' of lower-case bases in CtGTGCatCGAaGTTtGCAtTt, one strand
binding result (NF-kB p50 homodimer [5]): binds
